What was measured:
[1] = system: enzymes in the MAPK signaling transduction pathway (MEK1/2, p42/44, p90RSK); assay: Activation of MAPK signaling transduction pathway (phospho-specific Western); format: cell-based, human; details: PC-3, DU-145, LNCaP
Method: (§1) Cells were grown to 80% confluency by incubating in their respective serum-free basal media for 18 h. For each cell line, tissue culture plates were pre-treated with a specific MEK1/2 inhibitor (U0126, Cat.# 9903, Cell Signaling Technology, Beverly, Mass.) at 10 μM for 1.5 h. Saposin C and TX14A were added at the following concentrations: 0.1, 1.0, and 10 nM. The cells were then incubated at 37° C. for 5 min, washed, and lysed on ice in RIPA buffer supplemented with protease inhibitors and 1 mM sodium orthovandate, as described in S. Koochekpour et al., 1999. Clarified cell lysates were subjected to Western analysis using phospho-specific antibodies against three enzymes in the MAPK Pathway: MEK1/2 (Ser217/22; Cat.# 9121; Cell Signaling Technology, Beverly, Mass.); p90RSK (p90^rsk, Ser380, Cat# 9341, Cell Signaling Technology); and p42/44 MAP Kinases (p44^MAPK, p42^MAPK; Thr202/Tyr204, Cat# 9102; Cell Signaling Technology). Primary antibodies against p42/44 MAP kinase (Cell Signaling Technology) or against tubulin (Cat# 12463, Santa Cruz Biotechnology, Santa Cruz, Calif.) were used as controls. To quantify the difference between the control and the various treatments, the autoradiograms were read on a densitometer, an Alpha Imager 2000 (Alpha Innotech Corp., San Leandro, Calif.).

[2] = system: prosaposin; details: LNCaP and normal prostate stromal cells; 0.1, 1, 10 nM; 24 h
[3] = system: normal prostate stromal cells; details: NaSe 10 μM, 48 h
[4] = system: PC-3 cells; assay: Protection from NaSe-induced cell death (trypan blue exclusion); format: cell-based, human; details: NaSe 10 μM, 48 h
[5] = system: prostate (PC-3, DU-145, LNCaP), breast (MCF-7), lung (H1299), and colon (LoVo) cancer cells; assay: Cytotoxicity / cell number, all tested cancer cell lines incl. competitive inhibition; format: cell-based, human
Method: The conjugate of saporin and TX14A was made by special order by Advanced Targeting Systems with a 1:1 molar ratio between the peptide and saporin. Blank-SAP, a non-targeted saporin conjugate, was purchased as a control (ATS, Catalogue# IT-21). Exponentially growing cells were trypsinized and cultured in their complete culture media (1000/well in 96-well plates) as described in Example 1. After 1 day of incubation at 37° C., the culture media were supplemented with either TX14A, saporin, TX14A-saporin (conjugate), Saposin C, TX14A-saporin plus TX14A, or TX14A-Saporin plus Saposin C at the following concentrations: 0, 0.1, 1, 10, 100, 1000 nM. Three days after treatment, cell death was monitored with a Promega (Madison, Wis.) cell titer cytotoxicity kit. Cell counts were normalized to the media controls.

[6] = system: pro-cathepsin D and cathepsin D; assay: Western blot of culture supernatant for cathepsin D expression; format: cell-based, human; details: LNCaP and normal prostate stromal cells; 0.1, 1, 10 nM; 24 h; compared to control (0 nM)
[7] = system: PSA; assay: Western blot of supernatant for PSA expression in LNCaP cells; format: cell-based, human; details: 24 h, at concentrations as low as 0.1 nM
Method: To investigate the effect of saposin C on the expression of PSA in LNCaP cells, cells were cultured in the preferred media up to 80% confluency, and then washed twice with PBS. The cells were incubated in serum-free medium supplemented with either testosterone (T), dihydrotestosterone (DHT), saposin C or TX14A at the following concentrations: 0, 0.1, 1 or 10 nM. […] The supernatants were concentrated 5-fold using Centriprep-3 concentrator (Amikon, Beverley, Mass.) and stored frozen in −70° C. until use. A Western blot analysis was performed (as in Examples 2 and 6) using commercially available anti-PSA (Santa Cruz Biotechnology, Santa Cruz, Calif.).

[8] = system: urokinase-type plasminogen activator (uPA); assay: Western blot of supernatant for uPA; format: cell-based, human; details: normal prostate stromal cells, PC-3 and DU-145; 0.1, 1.0, 10 nM; 24 h
Method: (§2) To investigate the effect of saposin C on expression of both urokinase-type plasminogen activator (uPA) and the soluble uPA receptor (uPAR), normal prostate stromal cells and prostatic cancer cells (PC-3, DU-145, LNCaP) were cultured in media as described in Example 1. The cells were cultured in the preferred media up to 80% confluency, then washed twice with PBS, and incubated for 24 h at 37° C. in serum-free medium supplemented with either 0, 0.1, 1.0 or 10 nM saposin C. At the end of the incubation period, the cell-conditioned medium (Supernatant) was collected. The Supernatants were concentrated 5-fold using Centriprep-3 concentrator (Amikon, Beverley, Mass.), and stored frozen in −70° C. until use.
(§3) A Western blot analysis was performed (as in Examples 2 and 6) using commercially available anti-uPA and anti-uPAR antibodies (Cat# 389 and Cat# 399R, respectively; American Diagnostica Inc., Greenwich, Conn.).

[9] = system: PC-3; assay: Transwell Matrigel cell invasion assay; format: cell-based, human; details: saposin C 0.1-10 nM, 16 h
Method: (§4) To test the effect of saposin C on prostatic cell migration and invasion, cell migration and invasion assays were performed using 24-well transwell units with 8-μm polycarbonate filters (Costar, purchased from Becton Dickinson, Bedford, Mass.), as described in S. Koochekpour et al., “Met and […] expression in human glioma,” Cancer Res., vol. 57, pp. 5391–5398 (1997). For invasion assays, transwell filters were coated with 20 μg GFR-Matrigel matrix (Becton Dickenson) in 100 μl of basal medium, and left to air dry overnight. To the lower compartment of each transwell unit, was added 400 μl of basal media supplemented with 0.5% FBS and 0.1% BSA. Saposin C was then added to the lower compartment in the following concentrations: 0 (control), 0.1 nM, 1 nM, and 10 nM.
(§5) Cultured cells were freshly harvested by trypsinization and counted. Approximately 5000 cells were resuspended in 100 μl of serum-free medium With 0.1% BSA, and were placed in the upper compartment of the transwell unit. After 16 h of incubation at 37° C., cells in both the upper and lower compartments were fixed in methanol and stained with Diff-Quick (Dade, Aguada, Puerto Rico). Non-migratory cells in the upper surface of the filter were removed by wiping with a cotton swab. Cells under the filter were counted. The results of cell migration are shown in FIG. 4A; and of cell invasion in FIG. 4B. Each bar represents the mean +/−SEM of three duplicate experiments, and samples from each experiment were counted at least three times.

[10] = system: DU-145; assay: Transwell Matrigel cell invasion assay; format: cell-based, human; details: saposin C 0.1-10 nM, 16 h
Method: as §4, §5

[11] = system: LNCaP; assay: Transwell Matrigel cell invasion assay; format: cell-based, human; details: saposin C 0.1-10 nM, 16 h
Method: as §4, §5

[12] = system: soluble uPA receptor (uPAR); assay: Western blot of supernatant for soluble uPAR; format: cell-based, human; details: normal prostate stromal cells, PC-3 and DU-145; 0.1, 1.0, 10 nM; 24 h
Method: as §2, §3

[13] = system: breast cancer cells (MCF-7); assay: Transwell Matrigel cell invasion assay; format: cell-based, human; details: saposin C 0.1-10 nM
Method: as §4, §5
(§6) To test the effect of saposin C on migration and invasion of non-prostatic cancer cells, assays using human breast cancer cell line (MCF-7), colon cancer cell line (LoVo), and lung cancer cell line (H1299) were performed in 24-well transwell units with polycarbonate filters as described above in Example 5.

[14] = system: colon cancer cells (LoVo); assay: Transwell Matrigel cell invasion assay; format: cell-based, human; details: saposin C 0.1-10 nM
Method: as §4, §5, §6

[15] = system: lung cancer cells (H1299); assay: Transwell Matrigel cell invasion assay; format: cell-based, human; details: saposin C 0.1-10 nM
Method: as §4, §5, §6

[16] = system: p90RSK; assay: Phospho-specific Western, p90RSK; format: cell-based, human
Method: as §1

[17] = system: prostate cancer cells and normal prostate cells; assay: Protection from NaSe-induced cell death, cell lines overall; format: cell-based, human; details: dose dependent; NaSe 10 μM; 48 h
[18] = system: normal prostate epithelial cells; assay: Protection from NaSe-induced cell death (trypan blue exclusion); format: cell-based, human; details: NaSe 10 μM, 48 h
[19] = system: DU-145 cells; assay: as above; format: cell-based, human; details: NaSe 10 μM, 48 h
[20] = system: non-prostatic cancer cells (MCF-7, LoVo, H1299); assay: Transwell migration and invasion, all cells tested; format: cell-based, human
Method: as §4
Cultured cells were freshly harvested by trypsinization and counted. Approximately 5000 cells were resuspended in 100 μl of serum-free medium With 0.1% BSA, and were placed in the upper compartment of the transwell unit. After 16 h of incubation at 37° C., cells in both the upper and lower compartments were fixed in methanol and stained with Diff-Quick (Dade, Aguada, Puerto Rico). […] Cells under the filter were counted. […] Each bar represents the mean +/−SEM of three duplicate experiments, and samples from each experiment were counted at least three times. […]

[21] = system: normal prostate epithelial cells; assay: Cell proliferation (living cells, trypan blue exclusion); format: cell-based, human; details: 0.1, 1.0, 10 nM, 2 days
Method: To test the effects of saposin C and TX14A on cell proliferation, various cells were cultured as described in Example 1, incubated in only fresh media, or in media supplemented with saposin C or with TX14A at concentrations of 0.1, 1.0, and 10 nM. After incubation for 2 days, the number of living cells was determined by trypan blue exclusion method, as described above in Example 3. The results are shown in FIG. 3, in which each point represents the mean +/−SEM of three duplicate experiments.

[22] = system: PC-3; assay: Transwell cell migration assay; format: cell-based, human; details: saposin C 0.1-10 nM in lower compartment, 16 h
Method: as §4, §5

[23] = system: DU-145; assay: Transwell cell migration assay; format: cell-based, human; details: saposin C 0.1-10 nM, 16 h
Method: as §4, §5

[24] = system: LNCaP; assay: Transwell cell migration assay; format: cell-based, human; details: saposin C 0.1-10 nM, 16 h
Method: as §4, §5

[25] = system: normal primary prostate epithelial cells; assay: Transwell cell migration assay; format: cell-based, human; details: presence or absence of saposin C
Method: as §4, §5

[26] = system: p42/44 MAP Kinases; assay: Phospho-specific Western, p42/44 MAP kinases; format: cell-based, human
Method: as §1

[27] = system: MEK1/2; assay: Phospho-specific Western, MEK1/2; format: cell-based, human; details: normal prostate epithelial cells; 0.1, 1.0, 10 nM
Method: as §1

[28] = system: breast cancer cells (MCF-7); assay: Transwell cell migration assay; format: cell-based, human; details: saposin C 0.1-10 nM
Method: as §4, §5, §6

[29] = system: colon cancer cells (LoVo); assay: Transwell cell migration assay; format: cell-based, human; details: saposin C 0.1-10 nM
Method: as §4, §5, §6

[30] = system: lung cancer cells (H1299); assay: Transwell cell migration assay; format: cell-based, human; details: saposin C 0.1-10 nM
Method: as §4, §5, §6

[31] = normal prostate epithelial cells, decreased at 0.1 nM, increased at 1.0 nM, decreased at 10 nM

N#CC(=C(/N)Sc1ccccc1N)/C(C#N)=C(\N)Sc1ccccc1N [U0126, reference compound]
inhibition of saposin C / TX14A activation of MAPK pathway enzymes ([1]; U0126 10 μM pre-treatment 1.5 h, stromal): substantially inhibited

C[C@]12CCC(=O)C[C@@H]1CC[C@@H]1[C@@H]2CC[C@]2(C)[C@@H](O)CC[C@@H]12 [DHT, dihydrotestosterone]
expression of prosaposin [2]: stimulated the expression

O=[Se]([O-])[O-].[Na+].[Na+] [NaSe, sodium selenium]
toxic effect of NaSe [3]: resistant

C[C@]12CC[C@H]3[C@@H](CCC4=CC(=O)CC[C@@]43C)[C@@H]1CC[C@@H]2O [T, testosterone]
expression of prosaposin [2]: stimulated the expression

B1: saposin C: Human saposin C, about 8–13 kDa protein proteolytically generated from prosaposin; obtained from Professor K. Sandoff (protein, UniProt P07602 311-390, looked up)
Saposin-C: SDVYCEVCEFLVKEVTKLIDNNKTEKEILDAFDKMCSKLPKSLSEECQEVVDTYGSSILSILLEEVSPELVCSMLHLCSG
modifications: Saposin-C
notes: Human saposin C, about 8–13 kDa protein proteolytically generated from prosaposin; obtained from Professor K. Sandoff
protective effect, difference in the percent cell death with and without saposin C [4]: 55%
cell proliferation of all cancer cell lines ([5]; 0.1-1000 nM, three days, much greater effect in PC-3 and DU-145): increased
effect on TX14A-saporin cytotoxicity in competitive inhibition assays ([5]; equimolar mixture with TX14A-saporin, simultaneous treatment): inhibited in a dose dependent manner
expression of pro-cathepsin D (50 kDa band) and active mature cathepsin D (36 kDa band) [6]: stimulate expression
extracellular level of PSA [7]: significantly increased
extracellular level of uPA [8]: increased
stimulation of invasion [9]: 100%
stimulation of invasion [10]: 70%
stimulation of invasion [11]: 48%
extracellular level of uPAR [12]: increased
increase of invasion [13]: 22–36%
increase of invasion [14]: 16–37%
increase of invasion [15]: 19–195%
pattern of p90RSK phosphorylation activity [16, 31]: biphasic pattern
pattern of p90RSK activity ([16]; normal prostate stromal cells): biphasic pattern
degree of cell death in the presence of NaSe [17]: decreased the degree of cell death
protection from cell death [18]: Neither Saposin C nor TX14A protected
protective effect, difference in the percent cell death with and without saposin C [19]: 50%
concentration at which the highest migration and invasion was seen [20]: 1 nM
effect on growth [21]: did not show any effect
stimulation of migration [22]: more than 300%
stimulation of migration [23]: 140%
stimulation of migration [24]: 50%
migration through the filter [25]: neither migrated through the filter
pattern of p42/44 phosphorylation activity [26, 31]: biphasic pattern
increase in p42/44 phosphorylation as compared to the control ([26]; normal prostate stromal cells, densitometry): 15 fold
expression of MEK1/2 (phospho-MEK1/2 Western) [27]: dose-dependent increase
increase of migration [28]: 12–59%
increase of migration [29]: 22–59%
increase of migration [30]: 44–460%
activation of the enzymes in the MAPK signaling transduction pathway ([1]; normal prostate stromal cells, nanomolar concentrations, 5 min): activated

— patent US7166691B2, “Saposin C and receptors as targets for treatment of benign and malignant disorders” (priority 2002, dated 2007)
